Here are results for two molecules from article PMC6391317.

The target in data set [1] is T1, thrombin (alpha-thrombin) (human, UniProt P00734;P00734 328-363;364-622). In words: capillary electrophoresis; simulated body plasma ionic buffer (SBP); exosite I; CE: 400 nM thrombin + 100 nM fluorescein-labeled aptamer in simulated body plasma ionic buffer (SBP; composition and pH not given in the material), 37 C for 2 m.
The target of data set [2] is T1, thrombin (alpha-thrombin). In words: capillary electrophoresis; simulated body plasma ionic buffer (SBP); exosite II; CE: 400 nM thrombin + 100 nM fluorescein-labeled aptamer in simulated body plasma ionic buffer (SBP; composition and pH not given in the material), 37 C for 2 m.

B1: HD1 (structured_DNA)
DNA: GGTTGGTGTGGTTGG
As to B1, the Kd in data set [1] was 258 nM.

B2: HD22 (structured_DNA)
DNA: AGTCCGTGGTAGGGCAGGTTGGGGTGACT
Regarding B2, the Kd in data set [2] was 97.6 nM.
